Assay results from US20180326084A1.

Experiments:
[1] = target: human AXL (full length) (human) (UniProt P30530); test: flow cytometry, A431 cells pre-incubated with 10 µg/mL Gas6 (competitor)
[2] = target: human AXL (full length) (human) (UniProt P30530); test: flow cytometry, A431 cells pre-incubated with 10 µg/mL Gas6 (competitor); value less accurate due to low binding
[3] = target: human AXL (full length) (human) (UniProt P30530); test: flow cytometry, A431 cells, no Gas6

B1: IgG1-YW327.6S2 (antibody, from another filing, V domains shown)
VH: EVQLVESGGGLVQPGGSLRLSCAASGFSLSGSWIHWVRQAPGKGLEWVGWINPYRGYAYYADSVKGRFTISADTSKNTAYLQMNSLRAEDTAVYYCAREYSGWGGSSVGYAMDYWGQGTLVTVSS
VL: DIQMTQSPSSLSASVGDRVTITCRASQDVSTAVAWYQQKPGKAPKLLIYSASFLYSGVPSRFSGSGSGTDFTLTISSLQPEDFATYYCQQSYTTPPTFGQGTKVEIK
- fold change of EC50 after Gas6 pre-incubation against no Gas6 [1]: 21 fold
- maximal binding in presence of Gas6 (% of binding in absence of Gas6) [1]: 41%
- maximal binding in presence of Gas6 (% of binding without Gas6) [1]: 19%
- EC50 [2]: 1.9 mg/L
- EC50 [3]: 0.09 mg/L
